Test results: the Immune Epitope Database (IEDB)

Columns and labels:
[1] = molecular target: HLA-A*69:01; assay: IEDB peptide-MHC binding, purified MHC/competitive/fluorescence; filed as Kd, often an IC50 or EC50 that approximates it; ≥ and ≤ were set here for values at or beyond the usual limits of such assays; settings: source organism: Homo sapiens
[2] = molecular target: HLA-B*18:01; assay: as above
[3] = molecular target: HLA-A*26:01; assay: as above
[4] = molecular target: HLA-A*02:03; assay: as above; settings: source organism: Homo sapiens
[5] = molecular target: HLA-B*39:01; assay: as above; settings: source organism: Homo sapiens
[6] = molecular target: HLA-A*02:01; assay: as above
[7] = molecular target: HLA-B*46:01; assay: as above
[8] = molecular target: HLA-A*02:12; assay: as above; settings: source organism: Homo sapiens
[9] = molecular target: HLA-A*03:01; assay: as above; settings: source organism: Homo sapiens
[10] = molecular target: HLA-A*02:11; assay: as above; settings: source organism: Homo sapiens
[11] = molecular target: HLA-A*02:19; assay: as above; settings: source organism: Homo sapiens
[12] = molecular target: HLA-A*68:02; assay: as above; settings: source organism: Homo sapiens
[13] = molecular target: HLA-B*27:03; assay: as above
[14] = molecular target: HLA-A*02:16; assay: as above; settings: source organism: Homo sapiens
[15] = molecular target: HLA-B*57:01; assay: as above
[16] = molecular target: HLA-B*15:01; assay: as above
[17] = molecular target: HLA-A*24:03; assay: as above; settings: source organism: Homo sapiens
[18] = molecular target: HLA-B*15:17; assay: as above; settings: source organism: Homo sapiens
[19] = molecular target: HLA-B*51:01; assay: as above; settings: source organism: Orthohantavirus sinnombreense
[20] = molecular target: HLA-A*02:03; assay: IEDB peptide-MHC binding, purified MHC/direct/fluorescence; filed as Kd, often an IC50 or EC50 that approximates it; ≥ and ≤ were set here for values at or beyond the usual limits of such assays; settings: source organism: Limestone Canyon virus
[21] = molecular target: HLA-B*39:01; assay: as above; settings: source organism: Orthohantavirus sinnombreense
[22] = molecular target: HLA-A*02:12; assay: as above; settings: source organism: Limestone Canyon virus
[23] = molecular target: HLA-A*03:01; assay: as above; settings: source organism: Limestone Canyon virus
[24] = molecular target: HLA-A*02:11; assay: as above; settings: source organism: Limestone Canyon virus
[25] = molecular target: HLA-A*02:19; assay: as above; settings: source organism: Limestone Canyon virus
[26] = molecular target: HLA-A*02:16; assay: as above; settings: source organism: Limestone Canyon virus
[27] = molecular target: HLA-A*24:03; assay: as above; settings: source organism: Limestone Canyon virus
[28] = molecular target: HLA-A*29:02; assay: as above; settings: source organism: Limestone Canyon virus
[29] = source organism: Orthohantavirus sinnombreense

Work on FWAWSVLRV yielded a Kd [1] of at least 20 µM, a Kd ([2]; source organism: Homo sapiens) of at least 20 µM and a Kd ([3]; source organism: Homo sapiens) of at least 20 µM. The Kd [4] was at least 20 µM, the Kd [5] was at least 20 µM and the Kd ([6]; source organism: Homo sapiens) was at least 20 µM. For the same sequence, the Kd ([7]; source organism: Homo sapiens) was at least 20 µM, the Kd [8] was at least 20 µM and the Kd [9] was at least 20 µM. The Kd [10] was at least 20 µM, the Kd [11] was at least 20 µM and the Kd [12] was at least 20 µM. The Kd ([13]; source organism: Homo sapiens) was at least 20 µM, the Kd [14] was at least 20 µM and the Kd ([15]; source organism: Homo sapiens) was at least 20 µM. For the same sequence, the Kd ([16]; source organism: Homo sapiens) was at least 20 µM, the Kd [17] was at least 20 µM and the Kd [18] was at least 20 µM.

With YKSRCYVGL the Kd [2, 29] was at least 20 µM, the Kd [3, 29] was at least 20 µM and the Kd [6, 29] was at least 20 µM. The Kd [7, 29] was at least 20 µM, the Kd [13, 29] was at least 20 µM and the Kd [15, 29] was at least 20 µM. It also gave a Kd [16, 29] of at least 20 µM, a Kd [19] of at least 20 µM and a Kd [20] of at least 20 µM. The Kd [21] was 0.293 µM, the Kd [22] was at least 20 µM and the Kd [23] was at least 20 µM. The Kd [24] was at least 20 µM, the Kd [25] was at least 20 µM and the Kd [26] was at least 20 µM. It also gave a Kd [27] of at least 20 µM and a Kd [28] of at least 20 µM.
